These results are taken from US20260217843A1 (APOGEE THERAPEUTICS, published 2026).

Positions count from the first letter of the chain named.

The target of one assay is T1, C1q.
T1 construct: also called Clq
The assay can be described thus: SPR (Biacore 8K+), antibody captured by anti-human IgG Fc, C1q injected at 25 nM, mean response. Here is the method: (§1) Briefly, a CM5 Series S sensor chip functionalized with anti-human IgG Fc antibody was used to capture antibodies at 5 μg/mL. […] The chip was regenerated with 10 mM glycine pH 1.5 and 10 mM NaOH between runs.

For a further assay, the target named is human FcRn (human, UniProt P55899 24-297; P61769 21-119). The assay can be described thus: SPR (Biacore 8K+), antibody captured by anti-human kappa, human FcRn injected, pH 5.8; pH 5.8. How it is done:
(§2) Briefly, a CM5 Series S sensor chip functionalized with anti-human kappa antibody was used to capture antibodies at 5 μg/mL. […] The chip was regenerated with 10 mM glycine pH 1.5 and 10 mM NaOH between runs.

A further assay concerns the target T2, human CD32b (human, UniProt P31994 46-217).
T2 sequence (looked up): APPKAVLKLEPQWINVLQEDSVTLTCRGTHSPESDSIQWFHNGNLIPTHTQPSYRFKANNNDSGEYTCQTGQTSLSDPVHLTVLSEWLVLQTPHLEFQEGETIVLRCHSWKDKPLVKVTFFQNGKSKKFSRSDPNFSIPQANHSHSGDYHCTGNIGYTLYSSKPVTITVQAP
The assay can be described thus: SPR (Biacore 8K+), antibody captured by anti-human IgG Fc, receptor injected. Here is the method:
as §1
In general terms: SPR reads the build-up and loss of mass on a sensor chip optically.

In the next assay the target is T3, human CD32a 167H (human, UniProt P12318 36-218).
T3 construct: numbering not explained
T3 sequence (looked up): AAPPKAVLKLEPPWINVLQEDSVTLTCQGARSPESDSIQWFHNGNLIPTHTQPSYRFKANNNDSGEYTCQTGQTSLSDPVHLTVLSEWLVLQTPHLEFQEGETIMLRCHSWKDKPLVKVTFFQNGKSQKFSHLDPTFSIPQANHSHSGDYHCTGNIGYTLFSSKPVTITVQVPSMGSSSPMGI
The description is as above. How it is done:
as §1

Another assay has as its target T4, human CD32a 167R (human, UniProt P12318 36-218).
T4 construct: numbering not explained
T4 sequence (looked up): T3 sequence (looked up) with H132R
The assay is described as above. Here is the method:
as §1

For another assay, the target named is human CD64 (human, UniProt P12314 16-288). The description is as above. Here is the method: as §1
human CD64, sequence (P12314 16-288 limits assumed): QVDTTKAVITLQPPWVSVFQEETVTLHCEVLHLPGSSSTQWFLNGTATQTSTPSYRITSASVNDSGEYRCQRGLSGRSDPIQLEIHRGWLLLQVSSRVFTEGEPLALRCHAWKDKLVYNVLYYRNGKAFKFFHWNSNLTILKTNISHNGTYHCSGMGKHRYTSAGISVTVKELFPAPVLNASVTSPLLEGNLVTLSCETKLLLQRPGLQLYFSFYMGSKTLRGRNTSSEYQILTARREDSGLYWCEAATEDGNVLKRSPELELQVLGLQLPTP
The target of the next assay is human CD16b (human, UniProt O75015 17-200, limits assumed). Described as above. Here is the method: as §1
human CD16b, sequence (O75015 17-200 limits assumed): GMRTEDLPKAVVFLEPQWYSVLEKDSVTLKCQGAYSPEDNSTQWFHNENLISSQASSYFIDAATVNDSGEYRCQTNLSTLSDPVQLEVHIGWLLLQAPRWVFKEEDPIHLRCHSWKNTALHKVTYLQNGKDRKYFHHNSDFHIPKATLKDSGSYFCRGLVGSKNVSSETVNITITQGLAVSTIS
For another assay, the target named is T5, human CD16a 176V (human, UniProt P08637 17-208).
T5 construct: Allelic variant named only as '176V'; numbering not explained
T5 sequence (P08637 17-208 F176V limits assumed): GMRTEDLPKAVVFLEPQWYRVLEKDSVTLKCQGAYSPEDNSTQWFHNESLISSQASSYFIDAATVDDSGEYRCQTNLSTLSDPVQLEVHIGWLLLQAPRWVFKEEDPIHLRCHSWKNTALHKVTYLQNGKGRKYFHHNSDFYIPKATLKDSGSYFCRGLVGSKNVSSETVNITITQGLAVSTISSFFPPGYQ
The assay is described as above. How it is done: as §1

The next assay addresses T6, human CD16a 176F (human, UniProt P08637 17-208).
T6 construct: numbering not explained
Described as above. How it is done: as §1

Another assay deals with cynomolgus FcRn (cynomolgus, UniProt Q8SPV9 24-297; Q8SPW0 21-119). As to the kind of experiment: SPR (Biacore 8K+), antibody captured by anti-human kappa, cynomolgus FcRn injected, pH 5.8; pH 5.8. How it is done: as §2
cynomolgus FcRn, sequence (Q8SPV9 24-297 limits assumed, chain 1 of 2): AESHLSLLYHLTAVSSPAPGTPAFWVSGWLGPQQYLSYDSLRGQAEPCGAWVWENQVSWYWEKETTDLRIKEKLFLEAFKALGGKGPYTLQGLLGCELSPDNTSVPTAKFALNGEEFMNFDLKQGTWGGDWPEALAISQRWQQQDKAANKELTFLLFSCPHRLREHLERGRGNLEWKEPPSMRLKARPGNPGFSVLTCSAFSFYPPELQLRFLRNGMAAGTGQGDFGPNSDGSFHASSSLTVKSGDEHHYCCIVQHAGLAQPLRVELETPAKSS
cynomolgus FcRn, sequence (Q8SPW0 21-119 limits assumed, chain 2 of 2): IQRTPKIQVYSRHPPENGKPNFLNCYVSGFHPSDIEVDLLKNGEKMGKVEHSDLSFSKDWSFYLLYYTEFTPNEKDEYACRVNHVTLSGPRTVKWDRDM
The target of the next assay is T7, biotinylated hOX40L (human, UniProt P23510 51-183, limits assumed, biotinylated (sites not given)).
T7 construct: construct not described
T7 sequence: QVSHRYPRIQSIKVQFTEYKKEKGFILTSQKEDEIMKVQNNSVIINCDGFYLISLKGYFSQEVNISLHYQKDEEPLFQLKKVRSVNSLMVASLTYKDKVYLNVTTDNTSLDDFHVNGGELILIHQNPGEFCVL
The assay can be described thus: blocking ELISA: biotinylated hOX40L preincubated with titrated antibody, added to coated hOX40-Fc, Extravidin-HRP.

The target in assay [1] is T8, Recombinant Human OX40L Protein, His Tag (Acro Cat. IL3-H52H4) (human, UniProt P23510 51-183).
T8 construct: Bought His-tagged protein; also called hOX40L
T8 sequence: T7 sequence
As to the kind of experiment: SPR (Biacore 8K), antibody captured, human OX40L injected, 1:1 fit. How it is done:
(§3) Samples were injected in a multi-cycle manner over freshly captured mAb, by regenerating the capture surfaces with injection of glycine pH 1.5 for 30 sec at a flow rate of 30 μL/min. The data was processed and analyzed with Biacore Insight Evaluation Software Version 2.0.15.12933 (GE Healthcare) as follows. […] The responses from the two buffer blank injections were then subtracted from the reference subtracted data (2-1) to yield double-referenced data, which were fit to an 1:1 binding model to determine the apparent association (ka) and dissociation rate constants (kd). Their ratio provided the apparent equilibrium dissociation constant or affinity constant (KD=kd/ka).

The target of assay [2] is T9, Recombinant Cynomolgus OX40L Protein, His Tag (SINO BIOLOGICAL, Cat. 11057-C07H) (cynomolgus, UniProt G7NVH7 51-183).
T9 construct: Bought protein
T9 sequence: T7 sequence with R5Q, K23E
The assay can be described thus: SPR (Biacore 8K), antibody captured, cynomolgus OX40L injected, 1:1 fit. How it is done: as §3

In assay [3] the target is T10, hOX40L added as soluble protein in cell assays (human, UniProt P23510 51-183, limits assumed).
T10 sequence: T7 sequence
As to the kind of experiment: cell-based or functional assay.

Assay [4] addresses T10, hOX40L added as soluble protein in cell …. As to the kind of experiment: cell-based or functional assay. This is another data set of the same source.
For assay [5], the target named is T11, hOX40L on hOX40L-expressing CHO cells (human, UniProt P23510 1-183).
T11 construct: also called cell surface OX40L
T11 sequence: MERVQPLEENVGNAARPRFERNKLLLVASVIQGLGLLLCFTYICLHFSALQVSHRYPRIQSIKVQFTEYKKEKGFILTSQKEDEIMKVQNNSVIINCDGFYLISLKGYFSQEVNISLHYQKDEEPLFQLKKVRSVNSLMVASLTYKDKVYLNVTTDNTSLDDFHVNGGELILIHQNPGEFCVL
The assay can be described thus: flow cytometry on hOX40L-expressing CHO cells, gMFI, nonlinear regression. Here is the method: Nonlinear regression was performed on geometric mean fluorescence intensity (gMFI) values to determine EC50 values (FIG. 1, TABLE 8).
(Flow cytometry measures light scatter and fluorescence of single cells or particles in a stream.)

human FcRn, sequence (P55899 24-297 limits assumed, form in doubt, chain 1 of 2): as the sequence (Q8SPV9 24-297 limits assumed, chain 1 of 2) above, with D39N, Q44E, S99G, G189S, N190S, M217L, T269S counted along it
human FcRn, sequence (P61769 21-119 limits assumed, form in doubt, chain 2 of 2): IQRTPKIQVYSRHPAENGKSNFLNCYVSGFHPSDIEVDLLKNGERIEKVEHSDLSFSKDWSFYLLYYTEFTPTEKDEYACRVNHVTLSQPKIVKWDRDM
T1 sequence (P02745 23-245, chain 1 of 3): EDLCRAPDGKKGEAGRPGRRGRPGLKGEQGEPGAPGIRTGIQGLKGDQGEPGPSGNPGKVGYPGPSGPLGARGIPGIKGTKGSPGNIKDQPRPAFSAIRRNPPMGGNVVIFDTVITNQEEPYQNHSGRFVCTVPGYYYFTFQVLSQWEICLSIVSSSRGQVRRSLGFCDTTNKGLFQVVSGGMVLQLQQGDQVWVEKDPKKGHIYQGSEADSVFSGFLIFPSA
T1 sequence (P02746 28-253, chain 2 of 3, further chain): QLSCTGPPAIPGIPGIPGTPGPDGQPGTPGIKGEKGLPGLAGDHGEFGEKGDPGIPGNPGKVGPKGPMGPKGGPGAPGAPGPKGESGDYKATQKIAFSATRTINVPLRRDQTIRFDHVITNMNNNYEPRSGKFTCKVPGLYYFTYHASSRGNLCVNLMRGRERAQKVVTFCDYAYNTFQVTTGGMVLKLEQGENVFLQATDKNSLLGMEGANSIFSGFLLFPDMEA
T1 sequence (P02747 29-245, chain 3 of 3, further chain): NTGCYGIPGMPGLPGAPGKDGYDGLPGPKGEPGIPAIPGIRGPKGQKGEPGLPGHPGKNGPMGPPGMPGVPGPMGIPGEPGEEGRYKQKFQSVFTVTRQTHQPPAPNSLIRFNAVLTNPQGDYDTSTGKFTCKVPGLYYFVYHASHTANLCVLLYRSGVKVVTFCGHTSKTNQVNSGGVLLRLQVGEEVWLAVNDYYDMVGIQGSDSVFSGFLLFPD
T6 sequence (P08637 17-208 limits assumed): as the sequence (P08637 17-208 F176V limits assumed) above, with V160F counted along it

B1: anti-hOX40L antibody clone 231 (antibody, human IgG1, kappa, L234A L235A)
heavy: QVQLVQSGTEVKKPGASVKVSCKASGYTFTNYDINWVRQATGQGLEWVGWIHPNTGKTGYAQKFQGRVTMTRDISIGTAYMELNSLRSEDTAVYYCARESYDLWSGHSFNWFDPWGQGTLVTVSSASTKGPSVFPLAPSSKSTSGGTAALGCLVKDYFPEPVTVSWNSGALTSGVHTFPAVLQSSGLYSLSSVVTVPSSSLGTQTYICNVNHKPSNTKVDKKVEPKSCDKTHTCPPCPAPEAAGGPSVFLFPPKPKDTLYITREPEVTCVVVDVSHEDPEVKFNWYVDGVEVHNAKTKPREEQYNSTYRVVSVLTVLHQDWLNGKEYKCKVSNKALPAPIEKTISKAKGQPREPQVYTLPPSRDELTKNQVSLTCLVKGFYPSDIAVEWESNGQPENNYKTTPPVLDSDGSFFLYSKLTVDKSRWQQGNVFSCSVMHEALHNHYTQKSLSLSPG
light: DIQLTQSPSFLSASVGDRVIITCRASQGITSYLAWYQRKPGKAPKLLIYGATTLQSGVPSRFSGSGSGTEFTLTISSLQPEDFATYYCQQLQSYPYTFGQGTKLEIKRTVAAPSVFIFPPSDEQLKSGTASVVCLLNNFYPREAKVQWKVDNALQSGNSQESVTEQDSKDSTYSLSSTLTLSKADYEKHKVYACEVTHQGLSSPVTKSFNRGEC
Regarding B1, in the assay with C1q, the “RU at 25 nM C1q” value came to 1.8 RU. In addition, the Kd in the assay with human FcRn was found to be 141 nM; with cynomolgus FcRn, 117 nM; in assay [1], 0.137 nM; in [2], 0.0714 nM. Also, the koff with human FcRn stood at 0.0462 s⁻¹; with cynomolgus FcRn it was 0.0465 s⁻¹; in assay [1], 0.00013 s⁻¹; in assay [2], 0.000105 s⁻¹. Moreover, the kon with human FcRn came out at 328000 M⁻¹ s⁻¹; with cynomolgus FcRn it was 398000 M⁻¹ s⁻¹; in [1], 943000 M⁻¹ s⁻¹; in assay [2], 1.47e+06 M⁻¹ s⁻¹. Further, the binding result with human CD32b is recorded as “no binding (tested: 18 µM)”; in the assay with human CD32a 167H it was “no binding (tested: 8 µM)”; in the assay with human CD32a 167R it was “no binding (tested: 8 µM)”; in the assay with human CD64, “no binding (tested: 12.5 nM)”; in the assay with human CD16b, “no binding (tested: 10 µM)”; in the assay with human CD16a 176V, “no binding (tested: 6 µM)”. In addition, the binding result with human CD16a 176F was “no binding (tested: 6 µM)”. Further, the IC50 with biotinylated hOX40L was found to be 28.5 nM. Besides, in [3], the “IC50, luminescence (RLU), hOX40 reporter cells with 50 ng/mL hOX40L” value was 0.909 nM.

B2: anti-hOX40L antibody clone 105 (antibody, human IgG1, kappa, L234A L235A)
heavy: EVRLVESGGGLVQPGGSLRLSCAASGFTFSSYAMTWVRQAPGKGLEWVSLISGSGGLTKYADSVKGRFTISRDNSKKTLYLQMNSLRAEDTAVYYCAKDEGLTTGEYWGQGTLVTVSSASTKGPSVFPLAPSSKSTSGGTAALGCLVKDYFPEPVTVSWNSGALTSGVHTFPAVLQSSGLYSLSSVVTVPSSSLGTQTYICNVNHKPSNTKVDKKVEPKSCDKTHTCPPCPAPEAAGGPSVFLFPPKPKDTLYITREPEVTCVVVDVSHEDPEVKFNWYVDGVEVHNAKTKPREEQYNSTYRVVSVLTVLHQDWLNGKEYKCKVSNKALPAPIEKTISKAKGQPREPQVYTLPPSRDELTKNQVSLTCLVKGFYPSDIAVEWESNGQPENNYKTTPPVLDSDGSFFLYSKLTVDKSRWQQGNVFSCSVMHEALHNHYTQKSLSLSPG
light: DIQMTQSPSSLSASVGDRVTITCRASQGIRNDLGWYQQKPGKAPKRLIYATSSFQSGVPSRFSGSGSGTEFTLTISSLQPEDFATYYCLQHNSYPFTFGPGTKVDVKRTVAAPSVFIFPPSDEQLKSGTASVVCLLNNFYPREAKVQWKVDNALQSGNSQESVTEQDSKDSTYSLSSTLTLSKADYEKHKVYACEVTHQGLSSPVTKSFNRGEC
As for B2, in the assay with C1q, the “RU at 25 nM C1q” value is -3.6 RU. Moreover, the Kd with human FcRn is 145 nM; with cynomolgus FcRn, 121 nM; in [1], 0.141 nM; in [2] it was 0.0494 nM. In addition, the koff worked out at 0.0442 s⁻¹ with human FcRn, 0.0453 s⁻¹ with cynomolgus FcRn, 0.000125 s⁻¹ in [1] and 8.09e-05 s⁻¹ in assay [2]. The kon with human FcRn came out at 306000 M⁻¹ s⁻¹; with cynomolgus FcRn, 374000 M⁻¹ s⁻¹; in assay [1] it was 886000 M⁻¹ s⁻¹; in [2], 1.64e+06 M⁻¹ s⁻¹. In addition, the binding result in the assay with human CD32b is “no binding (tested: 18 µM)”; with human CD32a 167H, “no binding (tested: 8 µM)”; in the assay with human CD32a 167R, “no binding (tested: 8 µM)”; with human CD64 it was “no binding (tested: 12.5 nM)”; with human CD16b it was “no binding (tested: 10 µM)”; with human CD16a 176V it was “no binding (tested: 6 µM)”. Besides, the binding result with human CD16a 176F is given as “no binding (tested: 6 µM)”. In addition, 1.41 nM corresponded to half-maximal inhibition with biotinylated hOX40L (IC50). Moreover, the “Donor 1 IC50, IL-2 release by pre-activated human CD4+ T cells with 20 ng/ml human OX40L” value in assay [4] is 1.37 nM. Besides, the “Donor 2 IC50, IL-2 release by pre-activated human CD4+ T cells with 20 ng/ml human OX40L” value in assay [4] was 1.33 nM. The “Donor 3 IC50, IL-2 release by pre-activated human CD4+ T cells with 20 ng/ml human OX40L” value in assay [4] amounted to 1 nM. Also, the “IC50, luminescence (RLU), hOX40 reporter cells with 50 ng/mL hOX40L” value in assay [3] was 0.852 nM. The molecule further registered a half-maximal effective concentration (EC50) in assay [5] of 3.43 nM.

In general, Kd refers to the concentration at which binding is half-saturated. The koff is the rate constant with which the complex falls apart. One may read the kon as the rate constant with which the complex forms. As usually defined, the IC50 is the concentration that gives 50% inhibition. Broadly, the EC50 is the concentration needed to bring the measured effect to its halfway point.
